Source: patent US20110294982A1 (Ablynx, published 2011)
Where a chain is given by its changes, count along the chain named.

B1: VHH-H6 (VHH)
VHH: QVQLQDSGGGLVQAGGSLRLSCEASGRTFSSYAMGWFRQPPGKEREWVSTISRSGSAIYAYPVKGRFTMSRDNAKNTVYLEMNSLKPEDTAVFYCAAARSGVPSSRPTDYDYWGQGTQVTVSS
notes: Used with a Myc tag (captured/detected with anti-Myc 9E10) and a C-terminal His6 tag (detected with anti-HIS6 (C-term)); also called H6-VHH
B2: 140-A2 (VHH)
VHH: EVQLVESGGGLVQAGGSLRLSCAASGSTYRLNNMAWYRQSPGKKRELVALISGITSDPSTYYLDSVRGRFSISRDNALNTVYLQMNSLKPEDTAVYYCKQAWAGVEYWGQGTQVTVSS
B3: 140-G8 (VHH)
VHH: EVQLVESGGGSVQAGGSLRLSCTASGSIFSINDMGWYRQPPGEQRELVATLTSSDSTKYADSVKSRFTISRDNAKNTVYLQMNSLKPEDTAVYYCNAVINRRGDGRNWSREYWGQGTQVTVSS
B4: 140-A10 (VHH)
VHH: EVQLVESGGGLVQPGGSLRLSCAASGFTFSRMAMGWYRQAPGVERDFLAIISPGGGTNYADSVKGRFTISRDNAKNTVYLQMNSLKPEDTAVYYCNARNFEGRRVDYWGQGTQVTVSS
B5: 140-H8 (VHH)
VHH: EVQLVESGGGLVQAGGSLRLSCAASISANAIDVVSWYRQAPGKPRELAASITSAGRIKYAESVKGRFGISRDNAKNTVSLQMNSLKPEDTAVYYCNALYRNAIYWGQGTQVTVSS
B6: 140-H10 (VHH)
VHH: EVPLVESGGGSVQAGGSLRLSCAASQRTFSRDVTGWFRQAPGKERDFVAYIHRSGETTYYADSVKGRFTISRDNAKSTVYLQMNSLKPEDTAVYHCAAGRYGSTSDTLYDYWGQGTQVTVSS
B7: 140-F10 (VHH)
VHH: EVQLVESGGGSVQAGGSLRLSCAASQRTFSSDVMGWFRQAPGKERDFVAYIHRSGTTYYADSVKGRLTISRDNAKSTVYLQMNSLKPEDTAVYHCAAGRYGSTSDTLYDYWGQGTQVTVSS
B8: 140-B8 (VHH)
VHH: B7 VHH with S31R, I51S, L67F
B9: 140-A5 (VHH)
VHH: EVQLVESGGGSVQAGGSLRLSCAASGTTATITVPGWYRQAPGKQRELVAVINSGGTKKYADSVKGRFTISIDNVKRTLYLEMNSLRPEDTAVYYCSTLKYWGQGTQVTVSS
B10: 140-E10 (VHH)
VHH: EVQLVESGGGLVQAGESLKLSCVASGNILRVTSMGWGRQIPGKQRKLVAWITNEGRTEYADSVKGRFTISRDNAQNTLYLLMNSLKPEDTAVYYCYGFSPRESSGNTYWGQGTQVTVSS
B11: 140-D4 (VHH)
VHH: EVQLVESGGGLVEAGGSLRLSCATSGSTFGIEAMAWYRQAPGKQRELVATINSASRTNYADSVKGRFTISRDTGKSILYLQMNNLEPEDTAVYYCKITTPLPYRRDFWGQGTQVTVSS

These binders were tested against T1, recombinant VLA-5 (α5β1 integrin) (UniProt P08648 42-995; P05556 21-728, limits assumed) (assay: ELISA, integrin coated at 0.5 µg/well).
T1 construct: also called α5β1 (VLA-5) integrin; a5β1 integrin
T1 sequence (P08648 42-995 limits assumed, chain 1 of 2): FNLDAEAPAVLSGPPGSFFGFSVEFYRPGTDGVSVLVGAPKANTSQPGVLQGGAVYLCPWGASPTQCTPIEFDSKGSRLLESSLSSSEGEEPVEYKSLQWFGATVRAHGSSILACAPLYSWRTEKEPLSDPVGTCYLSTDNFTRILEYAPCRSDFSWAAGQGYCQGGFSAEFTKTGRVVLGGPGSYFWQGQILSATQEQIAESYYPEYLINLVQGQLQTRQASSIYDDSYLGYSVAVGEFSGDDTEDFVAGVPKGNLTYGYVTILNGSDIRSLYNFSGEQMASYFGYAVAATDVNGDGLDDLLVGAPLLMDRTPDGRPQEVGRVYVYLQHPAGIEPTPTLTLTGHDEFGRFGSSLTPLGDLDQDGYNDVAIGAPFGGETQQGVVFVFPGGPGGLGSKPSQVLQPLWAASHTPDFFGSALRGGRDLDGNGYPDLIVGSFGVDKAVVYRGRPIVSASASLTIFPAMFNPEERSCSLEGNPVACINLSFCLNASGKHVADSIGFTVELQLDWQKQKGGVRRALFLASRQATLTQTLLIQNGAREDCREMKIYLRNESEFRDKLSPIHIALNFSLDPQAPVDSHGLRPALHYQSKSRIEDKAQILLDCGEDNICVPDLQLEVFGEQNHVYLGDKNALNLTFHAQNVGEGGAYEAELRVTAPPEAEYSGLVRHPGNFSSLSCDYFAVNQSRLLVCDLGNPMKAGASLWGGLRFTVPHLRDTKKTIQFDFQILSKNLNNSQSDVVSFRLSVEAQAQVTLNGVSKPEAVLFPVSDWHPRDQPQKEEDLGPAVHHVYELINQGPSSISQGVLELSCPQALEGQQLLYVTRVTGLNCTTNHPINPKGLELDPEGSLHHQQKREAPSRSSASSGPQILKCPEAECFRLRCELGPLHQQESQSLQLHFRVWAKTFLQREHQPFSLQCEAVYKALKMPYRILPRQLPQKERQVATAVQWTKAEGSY
T1 sequence (P05556 21-728 limits assumed, chain 2 of 2): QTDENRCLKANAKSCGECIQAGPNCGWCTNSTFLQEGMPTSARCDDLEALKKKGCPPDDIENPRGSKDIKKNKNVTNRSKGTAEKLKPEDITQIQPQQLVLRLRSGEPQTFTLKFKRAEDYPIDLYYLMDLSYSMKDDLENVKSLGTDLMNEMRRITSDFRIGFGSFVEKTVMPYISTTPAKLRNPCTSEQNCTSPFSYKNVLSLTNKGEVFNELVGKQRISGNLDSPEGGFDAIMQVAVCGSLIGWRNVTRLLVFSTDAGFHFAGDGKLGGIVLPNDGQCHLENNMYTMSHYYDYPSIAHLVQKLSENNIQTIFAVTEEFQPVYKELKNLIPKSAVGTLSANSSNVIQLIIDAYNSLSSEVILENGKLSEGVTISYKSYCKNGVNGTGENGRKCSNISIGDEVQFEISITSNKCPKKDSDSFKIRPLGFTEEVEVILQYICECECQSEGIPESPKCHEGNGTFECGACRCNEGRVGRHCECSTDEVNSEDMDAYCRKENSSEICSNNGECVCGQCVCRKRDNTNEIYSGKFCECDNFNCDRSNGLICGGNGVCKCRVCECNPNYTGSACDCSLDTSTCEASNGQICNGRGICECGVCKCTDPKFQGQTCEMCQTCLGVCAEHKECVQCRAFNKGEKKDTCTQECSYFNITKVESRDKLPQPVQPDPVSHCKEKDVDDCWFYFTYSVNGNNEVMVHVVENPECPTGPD
Method: FIG. 3: Direct binding of VHH-H6 to recombinant α3β1 integrin. Recombinant VLA-3 (α3β1 integrin) or recombinant VLA-5 (a5β1 integrin) were coated into Maxisorb plates at 0.5 μg/well, and binding with VHH-H6 or no VHH (in which anti-Myc was used) was assayed in ELISA. Binding of the VHHs to the integrins is expressed as absorbance at 450 nm. Data represents the mean±standard deviation of three independent experiments

| binding result | Binder |
| --- | --- |
| no binding | B1 |

What follows are binders tested against T2, recombinant human alphavbeta6 (human, UniProt P06756 31-992; P18564 22-707, limits assumed) (assay: specificity ELISA on coated integrins, periplasmic extract).
T2 construct: Bought, carrier free (R&D Systems 3817-AV/CF); also called aVb6
T2 sequence (P06756 31-992 limits assumed, chain 1 of 2): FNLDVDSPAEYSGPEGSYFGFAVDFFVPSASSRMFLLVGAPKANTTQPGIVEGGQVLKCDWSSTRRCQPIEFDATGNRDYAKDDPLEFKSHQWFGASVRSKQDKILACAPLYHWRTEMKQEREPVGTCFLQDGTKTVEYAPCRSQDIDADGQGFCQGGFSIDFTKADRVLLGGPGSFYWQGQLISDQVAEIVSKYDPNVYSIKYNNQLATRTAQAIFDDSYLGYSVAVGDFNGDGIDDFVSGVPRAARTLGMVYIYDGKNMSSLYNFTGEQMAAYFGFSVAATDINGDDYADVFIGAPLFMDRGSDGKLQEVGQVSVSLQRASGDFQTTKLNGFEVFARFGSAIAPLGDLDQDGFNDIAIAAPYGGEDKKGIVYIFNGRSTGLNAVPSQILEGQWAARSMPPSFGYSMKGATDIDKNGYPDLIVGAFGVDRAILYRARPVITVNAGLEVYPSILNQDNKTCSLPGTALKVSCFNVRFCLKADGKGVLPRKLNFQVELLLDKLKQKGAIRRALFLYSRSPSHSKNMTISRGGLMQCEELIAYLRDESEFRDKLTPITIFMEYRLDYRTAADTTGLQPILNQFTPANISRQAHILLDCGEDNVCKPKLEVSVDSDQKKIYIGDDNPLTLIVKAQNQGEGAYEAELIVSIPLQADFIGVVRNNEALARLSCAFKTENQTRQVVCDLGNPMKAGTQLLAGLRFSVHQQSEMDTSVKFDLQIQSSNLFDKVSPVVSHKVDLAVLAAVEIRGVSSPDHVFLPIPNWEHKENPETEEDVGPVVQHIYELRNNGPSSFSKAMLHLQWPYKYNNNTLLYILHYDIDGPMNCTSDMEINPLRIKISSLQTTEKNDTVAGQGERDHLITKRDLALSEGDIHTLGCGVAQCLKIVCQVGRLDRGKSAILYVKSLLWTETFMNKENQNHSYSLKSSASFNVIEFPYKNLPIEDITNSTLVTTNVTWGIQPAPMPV
T2 sequence (P18564 22-707 limits assumed, chain 2 of 2): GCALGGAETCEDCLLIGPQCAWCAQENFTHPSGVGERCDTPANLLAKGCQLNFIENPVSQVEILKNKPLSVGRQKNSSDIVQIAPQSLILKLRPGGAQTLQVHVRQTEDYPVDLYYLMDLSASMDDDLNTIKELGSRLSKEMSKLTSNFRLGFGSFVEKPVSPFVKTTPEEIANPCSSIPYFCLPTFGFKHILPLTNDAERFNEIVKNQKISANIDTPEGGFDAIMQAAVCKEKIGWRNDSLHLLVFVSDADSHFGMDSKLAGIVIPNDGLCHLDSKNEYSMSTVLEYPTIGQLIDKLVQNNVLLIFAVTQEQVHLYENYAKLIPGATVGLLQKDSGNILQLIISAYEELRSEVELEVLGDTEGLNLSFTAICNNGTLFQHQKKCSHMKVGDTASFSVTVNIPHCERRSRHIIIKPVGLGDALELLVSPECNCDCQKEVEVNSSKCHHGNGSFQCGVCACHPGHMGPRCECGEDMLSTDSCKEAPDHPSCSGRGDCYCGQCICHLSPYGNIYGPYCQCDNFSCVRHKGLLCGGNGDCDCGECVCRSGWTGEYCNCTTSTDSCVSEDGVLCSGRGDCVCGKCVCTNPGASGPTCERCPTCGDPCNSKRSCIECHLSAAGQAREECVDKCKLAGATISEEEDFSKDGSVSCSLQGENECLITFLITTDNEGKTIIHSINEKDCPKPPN

| binding result | Binder |
| --- | --- |
| binds | B2 |
| binds | B3 |
| binds | B4 |
| binds | B5 |
| binds | B6 |
| binds | B7 |
| binds | B8 |
| binds | B9 |
| binds | B10 |
| binds | B11 |
